Results taken from the supplement of paper PMC9170038.

Test system: K4 kissing-loop RNA reporter
Assay: apparent KD of K4 kissing-loop reporter; higher = weaker reporter binding
Conditions: Eterna round: R107
Description: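 RNA-MaP round R107: designed RNA switches with theophylline, tryptophan, arginine or FMN aptamers are transcribed on-chip within common flanks. They are titrated with a labelled K4 kissing-loop RNA reporter in RNA-MaP buffer (100 mM Tris pH 7.5, 80 mM KCl, 4 mM MgCl2), without ligand or with the indicated ligand. Median apparent KD per design.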

[1] = input ligand: theophylline 20 uM
[2] = input ligand: tryptophan 2.4 mM
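Further: bound reporter read as fluorescence of individual clusters on recovered sequencing chips by microscopy, with normalized cluster intensities fitted with a binding model.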

Sequence | apparent KD of K4 kissing-loop reporter (input ligand: FMN 200 uM) | apparent KD of K4 kissing-loop reporter (input ligand: arginine 13.2 mM) | apparent KD of K4 kissing-loop reporter (input ligand: none) | apparent KD of K4 kissing-loop reporter [1] | apparent KD of K4 kissing-loop reporter [2]
AGUUCUUGCCGAAGGAGCGAGGCAGAGUGAUGUUCUGCAGAGGUCGAAAGACCUCAACUGCCUCAGGUAGGUCGCGGCAUGAACA [Omei KL Arginine B Exc A v6] | 291 nM | 298 nM | 563 nM | 469 nM | 476 nM
GGAUAGGACAGAGGAUAUGGUAGUGAUGUUACCAAACUGGUUACUUUUGUCAGAAAACUGGCAUUUCCAGAAGGCUGUCCUAUCG [KL-XFMN-B12] | 287 nM | 71 nM | 68.6 nM | 58 nM | 68.3 nM
GCCGUAGAUUGAAGGAGCGGGCCGUAGUGAUGUUACGCCAAAUUAUCCUUUCUUGAGGUGGUCCAGGUAGGUCGCAAUCUACGGC | 168 nM | 144 nM | 148 nM | 109 nM | 118 nM
AAGUACACGAUAGUGUACACCUAGUGAUGUUAGGAUAUGCAGAUAUGCAGAAGGAACGAGUCAUCUGACAAUAGUCGGAUGACAA [FmnAX 8 #OpenEnded #K4Early] | 564 nM | 70.2 nM | 100 nM | 103 nM | 82.4 nM
AAAACUCGGUAGUGAUGUUAUUGAGUGAACAAGGAUAUCUAUGAUAAGAGAAGGUGUAAGUUAAGCGUAUUUCGGCCUGUACAAU [theeternabot_sameState_KL_FMN_A_34] | 115 nM | 101 nM | 114 nM | 106 nM | 103 nM
UGAUAGGACAGAAGGAGCGGAAUGCUAGUCAAAGACUAGCAACGUUAAACAGGAGUGAUGUUCCAGGUAGGUCGCUGUCCUAUCU [ArgBX 22 #SwitchBubble #StaticStem] | 143 nM | 124 nM | 135 nM | 140 nM | 113 nM
UAACUGCAGUGAUGUUGCAGAUGUCCUGACUAGGAUAUCAGGAAACUGAGAAGGAGUCCCUUCUACACUGCAGAGAAGGAGGACA [[K1]-[K2]-[F1]'-[F1]-[F2]-[F2]'-[K]'-[F]''_Design1] | 283 nM | 125 nM | 145 nM | 125 nM | 139 nM
CCAUUCAUUUACGAUACCAGUCUAAUAUAUUGAAUCAAAACCCUCGCCGAGUGAUGUUCGGACCCUUGGCAGCGUCUGCGAGAGG [ddrdkmullin] | 596 nM | 548 nM | 677 nM | 543 nM | 519 nM
AAUGUAAUGACGGCCGCCACUGAUUACCAGUGAUGUUGGUAAAGAACUUUAUAAGUCCUGGAAACCAGGACCGGGUCAACGGUCC [Tryp B Ex t1] | 345 nM | 294 nM | 318 nM | 309 nM | 258 nM
ACGAAAUGCGACUCCUAGUUACACCGGGAAGGAGCGCGGAUAACCGCAGGUAGGUCGCCCGGAAGCCGGACCAGUGAUGUUGGUC [Exclusion Arginine A Gf 27] | 240 nM | 273 nM | 182 nM | 165 nM | 217 nM
CGAAGACUUAUGGAUACCAGCCUAGCAUCAGGUGGUUCAGAGGCAUGCAGUGAUGUUGCAGGCCCUUGGCAGCCAUGGUACUAGA [Xelebi] | 76 nM | 71.3 nM | 70 nM | 79.8 nM | 79.7 nM
GCGUCACGUCGGGAUACCAGAGAAAUGGCAUUAGCCAAUGACGAGUGAUGUUCGUAGGCGCUCCCUUGGCAGCCCACCGGGAGGA [theeternabot_sameState_KL_Theo_B_21] | 351 nM | 218 nM | 311 nM | 340 nM | 278 nM
UUUUUUAAGAUAUUGACCAACCCGAAGCUACGAGGACCGGUACGGCCGCCACUCGCCAGUGAUGUUGGCGACUGGUGAAACCAUG [KL-XTryp-A24] | 126 nM | 98.9 nM | 106 nM | 105 nM | 185 nM
AAUAAGGUCGCCGAUACCAGCGCGGGCAGAGCAAAGCUCUGCCCGGUAGUGAUGUUACCGCGCCCUUGGCAGCGGUGGCACGACC [Omei KL Theo B SS C v6] | 152 nM | 58.3 nM | 126 nM | 159 nM | 63.3 nM
CUCACGCUCACAGAUACCAGUGGUGAUCCGGAUUGUAGUGAUGUUAAUUCCGCCAUCAUACACCCUUGGCAGCUGGCGUCACCUU [theeternabot_sameState_KL_Theo_B_31] | 799 nM | 417 nM | 654 nM | 871 nM | 715 nM
AUUAAUUUCAGAGGAUAUCGUUAUUUUUUUAAGUAUAAUCUAUUUUGCAGUGAUGUUGCUAUUAAUCGAGAAGGCUGAUUUAUAA [JR_SSFMNB_Sub020] | 109 nM | 140 nM | 75.3 nM | 136 nM | 72.2 nM
UUCGAUCAGUGAUGUUGAUCAAUAGUCGAAGGAGCGCUAUAGAUAGCAGGUAGGUCGCGACUACAAGGUGUUAAGACACCUCGAA [Arg A SS t9] | 505 nM | 430 nM | 525 nM | 443 nM | 431 nM
AAUAAAAUCACGGCCGCCACUGAUGCUAAUAUUGGCAGUGAUGUUGCUAUGUAUAUUUUAUUUGACAGGACCGGGUGAAUAUUUA [#24 K4 Tryptophan B Exclusion] | 224 nM | 198 nM | 245 nM | 263 nM | 137 nM
CAGCCUGGUCAGUGAUGUUGGCCGCAGGGAAAGGAUAUUGUGUUGGCAAGAAGGUUCGCUUGAUCGUUGGCCCAUGCAUGGGCCU [theeternabot_sameState_KL_FMN_A_44] | 186 nM | 180 nM | 197 nM | 280 nM | 183 nM
AGUAAUGUCACGGCCGCCACUCUUUAUUGUUUUUAUAGUUAUAAAUCUUGCCAGUGAUGUUGGUAGAGGACCGGGUGACUUAAUA [#26 K4 Tryptophan B Same State] | 222 nM | 208 nM | 245 nM | 199 nM | 194 nM
UCCUAGGCUCGAAAGAGCCUAGGAUUUACUCAGGAUAUCCGGAAACGGAGAAGGGAGUGACUAGUGAUGUUAGGGACUCCCUAUU | 93.1 nM | 81.7 nM | 87.9 nM | 85.2 nM | 94.4 nM
